Paper PMC7117682, “A homogeneous SIRPα-CD47 cell-based, ligand-binding assay: Utility for small molecule drug development in immuno-oncology” (PLoS ONE, 2020)

Legend:
Settings in all cases: one partner purified
[1] = target: T1, CD47 naturally expressed on CD47(+) Jurkat T lymphoma cells (human (endogenous in Jurkat), UniProt Q08722 19-323); assay: laser scanning cytometry (LSC) on cells; competition on live CD47(+) Jurkat cells, 384-well, homogeneous: a fixed concentration of SIRPα-biotin (20 nM) co-incubated with a titration of the competitor or inhibitor, neutravidin-Alexa488
T1 construct: CD47, human, endogenous on the surface of Jurkat T lymphoma cells; also called cell-expressed CD47; native, cell surface expressed CD47; source: endogenous, on Jurkat cells (live or fixed in 4% paraformaldehyde)

[2] = target: T1, CD47 naturally expressed on CD47(+) …; assay: laser scanning cytometry (LSC) on cells; titration of SIRPα-biotin on Jurkat cells fixed in 4% paraformaldehyde (30 min on ice), homogeneous, neutravidin-Alexa488; with or without 1% DMSO
[3] = target: T1, CD47 naturally expressed on CD47(+) …; assay: laser scanning cytometry (LSC) on cells; titration of SIRPα-biotin on live DRAQ5-labelled Jurkat cells, 384-well, homogeneous (no wash), HEPES buffer (10 mM HEPES pH 7.5, 0.15 M NaCl), room temperature, neutravidin-Alexa488 0.5 μg/mL; SIRPα presented as a multimer on tetrameric neutravidin (avidity)

T1 sequence (Q08722 19-323): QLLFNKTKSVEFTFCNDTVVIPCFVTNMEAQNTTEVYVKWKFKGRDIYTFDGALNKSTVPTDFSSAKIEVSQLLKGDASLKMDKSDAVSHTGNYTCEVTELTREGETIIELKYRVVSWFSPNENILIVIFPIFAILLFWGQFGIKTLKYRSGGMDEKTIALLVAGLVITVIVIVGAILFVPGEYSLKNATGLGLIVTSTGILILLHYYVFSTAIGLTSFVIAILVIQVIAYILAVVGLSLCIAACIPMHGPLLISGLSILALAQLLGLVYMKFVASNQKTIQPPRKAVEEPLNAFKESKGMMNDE

IC50 [1] [µM]	EC50 [2] [nM]	EC50 [3] [nM]	Binder
7.5	–	–	SIRPα variant 1, non-biotin conjugated (cold) (domain or fragment, human, UniProt P78324 31-148, looked up, SIRPα allelic variant 1, human; non-biotin conjugated analog of the biotin-conjugated d1 construct; also called cold SIRPαV1; non-biotin conjugated SIRPαV1; source: produced as described in [33]) EEELQVIQPDKSVLVAAGETATLRCTATSLIPVGPIQWFRGAGPGRELIYNQKEGHFPRVTTVSDLTKRNNMDFSIRIGNITPADAGTYYCVKFRKGSPDDVEFKSGAGTELSVRAKP
–	1.3	4.6	SIRPα-Avi-biotin (soluble, biotin-conjugated SIRPα d1 construct; allelic variant not stated for the experiment) (domain or fragment, biotin (biotin-conjugated, SIRPα-Avi-biotin)) EELQVIQPDKSVLVAAGETATLRCTATSLIPVGPIQWFRGAGPGRELIYNQKEGHFPRVTTVSDLTKRNNMDFSIRIGNITPADAGTYYCVKFRKGSPDDVEFKSG
